Assay results from patent CN113234145A (THE FIFTH AFFILIATED HOSPITAL SUN YAT SEN UNIV; ZHUHAI …, dated 2021).

B1: nCoV396 (antibody, V domains shown)
VH: QVQLVESGGGVVQPGRSLRLSCAASGFTFSSYIMHWVRQAPGKGLEWVAVISYDGSNEAYADSVKGRFTISRDNSKNTLYLQMSSLRAEDTGVYYCARETGDYSSSWYDSWGRGTLVTVSS
VL: QLVLTQSPSASASLGASVKLTCTLSSGHSNYAIAWHQQQPEKGPRYLMKVNSDGSHTKGDGIPDRFSGSSSGAERYLTISSLQSEDEADYYCQTWGTGIQVFGGGTKLTVL
B2: nCoV425 (antibody, V domains shown)
VH: QVQLVESGGGVVQPGRSLRLSCAASGFTFSNYAMHWVRQPPGKGLEWVAIISYEGRTEYADSMKGRFTISRDNSKSAVYLQMNSLRPEDTAVYYCAREVFDISGSWFDYWGQGTLVTVSS
VL: QLVLTQSPSASASLGASVKLTCTLSSRHSNYAIAWHQQQPEKGPRYLMKLNSDGSHTKGDGIPDRFSGSSSGAERYLTISSLHSEDEADYYCQTWGTGIQVFGGGTKVTVV
B3: nCoV416 (antibody, V domains shown)
VH: QVQLVQSGAVLKRPGASVKLSCKASGYIFTSYHIHWVRQAPGQGLEWLGTINPRGDVTAYAQKFQGRVSLTRDTSTTTVYMELSSLRSEDTAIYYCAREHGDVSSSVFDHWGQGTLVSVSS
VL: QLVLTQSPSASASLGASIKLTCTLSSGHSNYAIAWHKQQPEKGLRYLMKVNSDGSHNKGDGIPDRFSGSSSGPERYLIISSLQSDDEADYHCQTWASGIQVFGGGTKLTVL
B4: nCoV457 (antibody, V domains shown)
VH: QVQLVESGGGVVQPGRSLRLSCVASGFTFSRYIIHWVRQAPGKGLEWVAVISYDGTAALYADTVKGRFTISRDNSKNTLYLQMNSLRADDTAVYYCARETGEMSTSYFEYWGQGTLVTVSS
VL: QLVLTQSPSASASLGASVKLTCTLSSRHNNYAIAWHQQQPEKGPRFLMKVNSDGSHTKGDGIPDRFSGSSSGAERYLTISSLQSDDEADYYCQTWGTGNQVFGGGTKVTVL
B5: nCoV424 (antibody, V domains shown)
VH: QVQLVQSGAEVKKPGASVKLSCKASGYTFSSYYIHWVRQAPGQGLEWLGIINPGGDITAYAQKFQGRVSLTRDTSTSTVYMQLSSLRYEDTAVYYCAREEGDVSTSVFDNWGQGTLVTVSS
VL: QLVLTQSPSASASLGASIKLTCTLSSGHRSYAIAWHQQQPGKGPRYLMKLNSDGSHIKGDGVPDRFSGSSSGAERYLSISSLQSEDEADYHCQTWGTGIQVFGGGTRLTVL
B6: nCoV402 (antibody, V domains shown)
VH: QVQLVESGGGVVQPGGSLRLSCAASGFTFSRFTMHWVRQAPGKGLEWVAIISFNGSDKLYVDSVKGRFTVSRDSSKEMLYLQMSSLRHEDTAVYYCARETEDYTSSYFDYWGQGTLVTVSS
VL: QLVLTQSPSASASLGASVKLTCTLSSGHNNYAIAWHQQQPQTGPRFLMKVNSDGSHVKGDGIPDRFTGSSSGTGRYLTISSLQSEDEADYYCQTWASGIQVFGGGTKLTVL
B7: nCoV454 (antibody, V domains shown)
VH: QVQLVESGGGVVQPGGSLRLSCVTSGFTFSNYAMHWVRQAPGKGLEWVAIISYDGSHLYGDSVKGRFTISRDNSKNTLYLEMSSLRNEDTATYYCARETPEVSGSWIDYWGQGALVIVSS
VL: QLVLTQSPSASASLGASVNLTCTLTSGHNSYAIAWHQQQPNKGPRYLMKLNSDGSHDKGDGIPDRFSGSSSGTERYLTISSLQSEDEADYYCQTWGTGVQVFGGGTKLTVL
B8: nCoV433 (antibody, V domains shown)
VH: QVQLVESGGGVVQPGRSLRLSCAASGFTFSNYAMHWVRQAPGKGLEWVTIISYDGTNIYEDSVKGRFTISRDNSKNTLYLQMNSLRAEDTAVYYCAREVFDSSGSWFDYWGQGTLVTVSS
VL: QLVLTQSPSASASLGASVRLTCSLSSGHRNYAIAWHQQQPEKGPRYLMKLNSDGSHTKGDGVPDRFSGSSSGAERYLTISSLQSEDEADYYCQTWGTGIQVFGGGTKVTVL
B9: nCoV400 (antibody, V domains shown)
VH: EVQLLESGGGLVQPGGSLRLSCAASGFTFSSYAMSWVRQAPGKGLEWVSVIYSGGSSTYYADSVKGRFTISRDNSKNTLYLQMNSLRAEDTAVYYCAKDHLELSAAGSQINYYYYGMDVWGQGTTVTVSS
VL: SYELTQPPSVSVSPGQTARITCSGDALPKQYAYWYQQKPGQAPVLVIYKDSERPSGIPERFSGSSSGTTVTLTISGVQAEDEADYYCQSADSSGTSHWVFGGGTKLTVL

Key:
SARS-CoV-2病毒N蛋白(全长) [1] = molecular target: T1, SARS-CoV-2病毒N蛋白(全长) (SARS-CoV-2, UniProt P0DTC9 1-419); experiment: SPR (Biacore X100), antibody captured as ligand, N protein as analyte
T1 construct: mature; also called SARS-CoV-2 N蛋白; 核衣壳蛋白

MERS-CoV N蛋白 = MERS-CoV N蛋白 (MERS-CoV, UniProt K9N4V7 1-411); experiment: SPR (Biacore X100), antibody captured as ligand, MERS-CoV N protein as analyte
SARS-CoV-2病毒N蛋白(全长) [2] = molecular target: T1, SARS-CoV-2病毒N蛋白(全长)
SARS-CoV N蛋白 = SARS-CoV N蛋白 (SARS-CoV, UniProt P59595 1-422); experiment: SPR (Biacore X100), antibody captured as ligand, SARS-CoV N protein as analyte

Binder | EC50 (SARS-CoV-2病毒N蛋白(全长) [2]) [ng/mL] | further results
B1 | 3.2 | Kd (SARS-CoV-2病毒N蛋白(全长) [1]): 1.02 nM; Kd (MERS-CoV N蛋白): 7.43 nM; Kd (SARS-CoV N蛋白): 7.44 nM
B2 | 5.2 | 
B3 | 3.3 | 
B4 | 2.6 | 
B5 | 11.8 | 
B6 | 6.3 | 
B7 | 5 | 
B8 | 5.3 | 
B9 | 1110 | 
